Test results published in PMC10397247.

Tests used:
Test in all cases: two-hybrid library CCNG1;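 also: natural log of median RNA to DNA barcode read ratio; higher means stronger binding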
4H591-bH = target: T1, 4H591-bH
T1 chain: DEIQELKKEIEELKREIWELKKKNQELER

4H3817-bH = target: T2, 4H3817-bH
T2 chain: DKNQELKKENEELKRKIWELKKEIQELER

4H1985-bH = target: T3, 4H1985-bH
T3 chain: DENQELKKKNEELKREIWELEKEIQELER

4H3414-bH = target: T4, 4H3414-bH
T4 chain: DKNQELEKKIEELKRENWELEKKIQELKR

4H3631-bH = target: T5, 4H3631-bH
T5 chain: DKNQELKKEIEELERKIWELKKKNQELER

4H3129-bH = target: T6, 4H3129-bH
T6 chain: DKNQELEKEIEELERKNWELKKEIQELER

4H3628-bH = target: T7, 4H3628-bH
T7 chain: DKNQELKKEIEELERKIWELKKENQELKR

4H3162-bH = target: T8, 4H3162-bH
T8 chain: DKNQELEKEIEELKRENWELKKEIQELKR

4H3462-bH = target: T9, 4H3462-bH
T9 chain: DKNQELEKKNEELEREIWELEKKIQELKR

4H850-bH = target: T10, 4H850-bH
T10 chain: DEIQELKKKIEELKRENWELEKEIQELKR

4H3497-bH = target: T11, 4H3497-bH
T11 chain: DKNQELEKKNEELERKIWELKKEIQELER

4H3175-bH = target: T12, 4H3175-bH
T12 chain: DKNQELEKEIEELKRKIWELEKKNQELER

4H1899-bH = target: T13, 4H1899-bH
T13 chain: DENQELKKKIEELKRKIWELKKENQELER

4H3172-bH = target: T14, 4H3172-bH
T14 chain: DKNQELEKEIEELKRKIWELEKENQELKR

4H3381-bH = target: T15, 4H3381-bH
T15 chain: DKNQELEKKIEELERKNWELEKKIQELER

4H906-bH = target: T16, 4H906-bH
T16 chain: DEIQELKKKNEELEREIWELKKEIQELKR

4H3613-bH = target: T17, 4H3613-bH
T17 chain: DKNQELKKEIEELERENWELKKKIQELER

4H584-bH = target: T18, 4H584-bH
T18 chain: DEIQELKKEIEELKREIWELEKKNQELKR

4H3974-bH = target: T19, 4H3974-bH
T19 chain: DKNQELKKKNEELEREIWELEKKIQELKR

4H1804-bH = target: T20, 4H1804-bH
T20 chain: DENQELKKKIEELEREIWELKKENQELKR

4H3926-bH = target: T21, 4H3926-bH
T21 chain: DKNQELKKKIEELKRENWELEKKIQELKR

4H626-bH = target: T22, 4H626-bH
T22 chain: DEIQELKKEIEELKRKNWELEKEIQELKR

4H619-bH = target: T23, 4H619-bH
T23 chain: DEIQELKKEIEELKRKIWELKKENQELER

4H3298-bH = target: T24, 4H3298-bH
T24 chain: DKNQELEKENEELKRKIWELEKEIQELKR

4H1710-bH = target: T25, 4H1710-bH
T25 chain: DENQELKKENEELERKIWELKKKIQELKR

4H3858-bH = target: T26, 4H3858-bH
T26 chain: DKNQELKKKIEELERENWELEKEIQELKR

4H3638-bH = target: T27, 4H3638-bH
T27 chain: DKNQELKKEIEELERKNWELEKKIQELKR

4H570-bH = target: T28, 4H570-bH
T28 chain: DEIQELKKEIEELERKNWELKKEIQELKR

4H3277-bH = target: T29, 4H3277-bH
T29 chain: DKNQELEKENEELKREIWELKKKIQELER

4H754-bH = target: T30, 4H754-bH
T30 chain: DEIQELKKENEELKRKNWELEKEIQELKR

4H2729-bH = target: T31, 4H2729-bH
T31 chain: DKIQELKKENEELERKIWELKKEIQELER

4H2667-bH = target: T32, 4H2667-bH
T32 chain: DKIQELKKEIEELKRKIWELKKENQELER

4H338-bH = target: T33, 4H338-bH
T33 chain: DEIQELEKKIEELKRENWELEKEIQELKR

4H2618-bH = target: T34, 4H2618-bH
T34 chain: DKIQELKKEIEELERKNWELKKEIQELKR

4H3782-bH = target: T35, 4H3782-bH
T35 chain: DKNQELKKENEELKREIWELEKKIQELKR

4H3354-bH = target: T36, 4H3354-bH
T36 chain: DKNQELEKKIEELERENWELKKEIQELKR

4H967-bH = target: T37, 4H967-bH
T37 chain: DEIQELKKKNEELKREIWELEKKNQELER

4H797-bH = target: T38, 4H797-bH
T38 chain: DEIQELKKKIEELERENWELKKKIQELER

4H3427-bH = target: T39, 4H3427-bH
T39 chain: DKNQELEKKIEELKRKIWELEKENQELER

4H883-bH = target: T40, 4H883-bH
T40 chain: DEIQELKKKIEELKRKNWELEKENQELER

4H48-bN = target: T41, 4H48-bN
T41 chain: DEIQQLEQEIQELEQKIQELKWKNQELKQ

4H454-bH = target: T42, 4H454-bH
T42 chain: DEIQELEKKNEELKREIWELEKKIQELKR

4H607-bH = target: T43, 4H607-bH
T43 chain: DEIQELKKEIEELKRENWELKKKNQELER

4H717-bH = target: T44, 4H717-bH
T44 chain: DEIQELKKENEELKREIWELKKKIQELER

4H3185-bH = target: T45, 4H3185-bH
T45 chain: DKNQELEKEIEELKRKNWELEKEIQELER

4H687-bH = target: T46, 4H687-bH
T46 chain: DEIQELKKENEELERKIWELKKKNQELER

4H918-bH = target: T47, 4H918-bH
T47 chain: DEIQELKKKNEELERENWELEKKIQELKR

4H953-bH = target: T48, 4H953-bH
T48 chain: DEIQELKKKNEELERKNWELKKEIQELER

4H331-bH = target: T49, 4H331-bH
T49 chain: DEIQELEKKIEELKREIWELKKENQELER

4H908-bH = target: T50, 4H908-bH
T50 chain: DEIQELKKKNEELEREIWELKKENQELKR

4H3855-bH = target: T51, 4H3855-bH
T51 chain: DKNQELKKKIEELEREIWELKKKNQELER

4H3112-bH = target: T52, 4H3112-bH
T52 chain: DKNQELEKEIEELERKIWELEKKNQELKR

4H568-bH = target: T53, 4H568-bH
T53 chain: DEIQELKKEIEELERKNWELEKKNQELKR

4H4001-bH = target: T54, 4H4001-bH
T54 chain: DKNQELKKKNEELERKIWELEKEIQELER

4H72-bH = target: T55, 4H72-bH
T55 chain: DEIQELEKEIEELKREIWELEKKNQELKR

P4A-bP = target: T56, P4A-bP
T56 chain: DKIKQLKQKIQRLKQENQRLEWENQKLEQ

4H932-bH = target: T57, 4H932-bH
T57 chain: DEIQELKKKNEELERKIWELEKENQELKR

4H462-bH = target: T58, 4H462-bH
T58 chain: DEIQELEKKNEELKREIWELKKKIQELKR

P9A-bP = target: T59, P9A-bP
T59 chain: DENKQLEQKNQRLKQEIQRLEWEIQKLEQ

P7A-bP = target: T60, P7A-bP
T60 chain: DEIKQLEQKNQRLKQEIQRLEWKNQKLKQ

P6A-bP = target: T61, P6A-bP
T61 chain: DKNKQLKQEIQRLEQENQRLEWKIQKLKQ

P5A-bP = target: T62, P5A-bP
T62 chain: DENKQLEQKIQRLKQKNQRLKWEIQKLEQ

P8A-bP = target: T63, P8A-bP
T63 chain: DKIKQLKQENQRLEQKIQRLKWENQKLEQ

4H48-bA = target: T64, 4H48-bA
T64 chain: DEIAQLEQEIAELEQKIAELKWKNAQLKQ

4H491-bA = target: T65, 4H491-bA
T65 chain: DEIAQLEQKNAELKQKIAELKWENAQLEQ

4H496-bH = target: T66, 4H496-bH
T66 chain: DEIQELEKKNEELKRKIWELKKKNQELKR

DENQELKKENEELERKIWELKKKIQELKR [4H1710-bH]
interaction score (4H591-bH): -1.94
interaction score (4H3817-bH): 0.823
interaction score (4H1985-bH): 0.219
interaction score (4H3414-bH): -0.234
interaction score (4H3631-bH): 0.643
interaction score (4H3129-bH): 0.0138
interaction score (4H3628-bH): 1.35
interaction score (4H3162-bH): -0.655
interaction score (4H3462-bH): 0.869
interaction score (4H850-bH): 0.221
interaction score (4H3497-bH): 0.794
interaction score (4H3175-bH): 0.0594
interaction score (4H1899-bH): 0.26
interaction score (4H3172-bH): 0.358
interaction score (4H3381-bH): -1.3
interaction score (4H906-bH): -0.745
interaction score (4H3613-bH): -0.955
interaction score (4H584-bH): 0.848
interaction score (4H3974-bH): 0.887
interaction score (4H1804-bH): -0.929
interaction score (4H3926-bH): 0.806
interaction score (4H626-bH): 0.853
interaction score (4H619-bH): 0.404
interaction score (4H3298-bH): -0.00934
interaction score (4H1710-bH): 0.661
interaction score (4H3858-bH): -0.238
interaction score (4H3638-bH): -0.567
interaction score (4H570-bH): -0.481
interaction score (4H3277-bH): 0.846

DKIQELKKEIEELERKNWELKKEIQELKR [4H2618-bH]
interaction score (4H754-bH): -0.696
interaction score (4H2729-bH): 2
interaction score (4H2667-bH): 0.678
interaction score (4H338-bH): 1.42
interaction score (4H2618-bH): 1.05
interaction score (4H3782-bH): -0.244
interaction score (4H3354-bH): 0.422
interaction score (4H967-bH): -0.781
interaction score (4H797-bH): 0.872
interaction score (4H3427-bH): 1.07
interaction score (4H883-bH): 0.271
interaction score (4H48-bN): 1.54
interaction score (4H454-bH): 1.16
interaction score (4H607-bH): -1.63
interaction score (4H717-bH): -0.283
interaction score (4H3185-bH): 1.08
interaction score (4H687-bH): 0.466
interaction score (4H918-bH): 0.911
interaction score (4H953-bH): 0.869
interaction score (4H331-bH): 1.85
interaction score (4H908-bH): -1.01
interaction score (4H3855-bH): -0.442
interaction score (4H3112-bH): -0.148
interaction score (4H568-bH): -0.291
interaction score (4H4001-bH): 0.338
interaction score (4H72-bH): -0.76

DKNQELKKKNEELERKIWELEKEIQELER [4H4001-bH]
interaction score (4H754-bH): -0.348
interaction score (4H967-bH): -2.28
interaction score (4H797-bH): -0.61
interaction score (4H883-bH): -1.67
interaction score (P4A-bP): 0.398
interaction score (4H454-bH): 1.29
interaction score (4H607-bH): -2.7
interaction score (4H717-bH): -0.479
interaction score (4H687-bH): -0.869
interaction score (4H918-bH): -2.1
interaction score (4H932-bH): 0.0317
interaction score (4H953-bH): -1.36
interaction score (4H908-bH): -0.558
interaction score (4H568-bH): -0.215
interaction score (4H4001-bH): -0.117
interaction score (4H462-bH): -0.256
interaction score (4H72-bH): -2.05

DENQELKKKIEELEREIWELKKENQELKR [4H1804-bH]
interaction score (4H3817-bH): -0.0504
interaction score (4H1985-bH): 0.0377
interaction score (4H3414-bH): -0.0322
interaction score (4H3631-bH): -0.276
interaction score (4H3129-bH): -0.437
interaction score (4H850-bH): -0.238
interaction score (4H3172-bH): -0.154
interaction score (4H906-bH): -0.842
interaction score (4H584-bH): 0.198
interaction score (4H3974-bH): -0.359
interaction score (4H1804-bH): 0.525
interaction score (4H619-bH): -0.693
interaction score (4H3638-bH): -0.512
interaction score (4H570-bH): -0.192

DKIKQLKQKIQRLKQENQRLEWENQKLEQ [P4A-bP]
interaction score (P9A-bP): -0.489
interaction score (P7A-bP): -1.51
interaction score (P4A-bP): -1.09
interaction score (P6A-bP): -0.773
interaction score (P5A-bP): -1.59
interaction score (P8A-bP): -0.918

DEIAQLEQEIAELEQKIAELKWKNAQLKQ [4H48-bA]
interaction score (4H48-bA): 1.25
interaction score (4H491-bA): 1.09

DEIQELEKKNEELKRKIWELKKKNQELKR [4H496-bH]
interaction score (4H496-bH): -0.197
